# Target: soluble Aβ oligomers (human)
# Test: cell-based or functional assay
substance,measurement,value
human IgG isotype control antibody,"Mean (Aβ spots per neuron), Isotype Control 1:50 (Aβ spots per neuron)",58.7

# From patent US20260226143A1
